This series in a line: yeast display, Sf9 membrane polyspecificity reagent, FACS + sequencing; frameworks hold sequencing errors. Put shortly: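 After 36–48 hours of galactose induction, yeast (Saccharomyces cerevisiae BJ5465) displaying a synthetic nanobody library were stained at 4 °C for 1 hour with 10% biotinylated, detergent-solubilized Sf9 membrane reagent. Streptavidin microbeads enriched the stained cells before FACS sorting into low and high (top ~1%) gates on anti-HA and streptavidin fluorescence. Each clone's polyreactivity label reflects its gate of origin.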
Consider “QVQLVESGGGLVQAGGSLRLSCAASGLILSRNVMGWYRQAPGKERELVAAINWSSGSTYYADSVKGRFTISRDNGKNTVSLQMNSLKPEDTAVYYCAATVFYDAEYDYWGQGSQVTVSS”, for which the “polyreactivity (PSR sort gate)” value is reported as “high polyreactivity”.

With “QVQLVESGGGLVQAGGSLRLSCAASGLILSSNAMGWYRQAPGKERELVAAITWDGDRTYADSVKGRFTISRDNAKNTVYLQMNSLKPEDTAVYYCAADKQYSWYDWSYDYWGQGTQVTVSS”, the “polyreactivity (PSR sort gate)” value was “low polyreactivity”. As to “QVQLVESGGGLVQAGGSLRLSCAASGLILVPNTMGWYRQAPGKERELVAAISYSGGGTYYADSVKGRFTISRDNANNTVYLQMNSLKPEDTAVYYCAAYVKRESAPYGYWGQGTLVTVSS”, the “polyreactivity (PSR sort gate)” value is given as “low polyreactivity”. For “QVQLVESGGGLVQAGGSLRLSCAASGLILVPNTMGWYRQAPGKESELVAAISDSGGGTYYADSVKGRFTISRDNAKNTVYLQMISLKPEDTAVYYCAAYGKRESAPYGYWGQGTQVTVSS” the value was “low polyreactivity”; for “QVQLVESGGGLVQAGGSLRLSCAASGLILVYYAMGWYRQAPGKERELVAAITPGGSTKYAESVKGRFTISRDNAKNTVYLQMNSLKPEDTAVYYCNALSGPYWYYVYQSHQDDYWGQGSQVTVSS”, “low polyreactivity”. The result for “QVQLVESGGGLVQAGGSLRLSCAASGLILYTYAMGWYRQAPGKERELVAALNSGGRTYSADSVKGRFTISRDNAKNTVYLQMNSLKPEDTAVYYCAADYGSRVRGFNYWGQGTQVTVSS” reads “low polyreactivity”. The result for “QVQLVESGGGLVQAGGSLRLSCAASGLINYYYAMGWYRQAPGKERELVAAISGSSGASTYYADSVKGRFTISRDNAKNTVYLQMNSLKPEDTAVYYCATPVASVTGYDYWGQGTQVTVSS” reads “low polyreactivity”. Turning to “QVQLVESGGGLVQAGGSLRLSCAASGLISTPNAMGWSRQAPGKERELVASISSRGGSTYYADSVKGRFTISRDNAKNTVYLQMNSLKPEDTAVYYCAADAYRDFYYEYYYWGQGSQVTVSS”, the “polyreactivity (PSR sort gate)” value is listed as “low polyreactivity”.

Take “QVQLVESGGGLVQAGGSLRLSCAASGLISYHYAMGWYRQAPGKERELVASISYTGGSTFYADSVKGRFTISRDNAKNTVYFQMNSLKPEDTAVYYCAAYRIWRPSYYYWGQGTQVTVSS”: the “polyreactivity (PSR sort gate)” value is given as “high polyreactivity”. Consider “QVQLVESGGGLVQAGGSLRLSCAASGLIYFYAMGWYRQAPGKERELVAAISSSGGRTYYADSVKGRFTISRDNAKNTVYLQMNSLKPEDTAVYYCAVVSSHYIGPGRNGYDYWGQGTQVTVSS”, for which the “polyreactivity (PSR sort gate)” value was “high polyreactivity”. Turning to “QVQLVESGGGLVQAGGSLRLSCAASGLMFRHYAMGWYRPAPGKERELVAAIDYSGGSTYYADSVKGRFTISRDNAKNTVYLQMNCLKPEDTAVYYCNRYHRLRVVPSRFVKYDYWGQGTQVTVSS”, the “polyreactivity (PSR sort gate)” value is on record as “low polyreactivity”. In the case of “QVQLVESGGGLVQAGGSLRLSCAASGLNFRKYAMGWYRQAPGKERELVAGISSGGSTYYADSVKGRFTISRDNAKNTVYLQMNSLKPEDTAVYYCAAKALRTMYYWGQGTQVTVSS”, the “polyreactivity (PSR sort gate)” value is listed as “high polyreactivity”.

With “QVQLVESGGGLVQAGGSLRLSCAASGLNFYYYTMGWYREAPGKERELVATISRSGTSTNYADSVKGRFTISRDNAKNTVYLQMNSLKPEDTAVYYCAAVLRWRDLFSEYYYLGQGTQVTVSS”, the “polyreactivity (PSR sort gate)” value was “high polyreactivity”. “QVQLVESGGGLVQAGGSLRLSCAASGLSFYLYAMGWYRQAPGKERELVAAISSSGSSTYYADSVKGRFTISRDNAKNTVYLQMNSLKPEDTAVYYCNARGTRASRYDYWGQGTQVTVSS”: the “polyreactivity (PSR sort gate)” value is “high polyreactivity”. For “QVQLVESGGGLVQAGGSLRLSCAASGLTFAFYAMGWYRQAPGKEREFVARIRTSAITYYADSVKGRFTISRDNAKTTVYLQMNSLKPEDTAVYYCAVSWNKLRDSSLYAYYYWGQGTQVTVSS” the value was “high polyreactivity”.

On to “QVQLVESGGGLVQAGGSLRLSCAASGLTFASYAMGWYRQAPGKERELVAVISASGGSTYYADSVKGRFTISRDNAKNPVYLQMNSLKPEDTAVYYCAARHSLYGYWGQGTLVTVSS”, for which the “polyreactivity (PSR sort gate)” value is recorded as “high polyreactivity”.

For “QVQLVESGGGLVQAGGSLRLSCAASGLTFAYYAMGWYRQAPGKERELVAAISLSGGSTYYADSVKGRFTISRDNAKNTVYLQMNSLKPEDTAVYYCNKGSYYWWDPGSTYIDDYWGQGTQVTVSS”, the “polyreactivity (PSR sort gate)” value is “low polyreactivity”. The result for “QVQLVESGGGLVQAGGSLRLSCAASGLTFDAYAMGWYRHAPRKERELVAAISWSGGSTYYADSVKGRFTISRDNAKNTVYLQMNSLKPEDTAVYYSNARYAQFRFWGQGTQVTVSS” reads “high polyreactivity”; that for “QVQLVESGGGLVQAGGSLRLSCAASGLTFDGNAMGWYRQAPGKERELVATIRSGGGTNYADSVKGRFTISRDNAKNTVYLQMNSLKPEDTAVYYCNADYRSVYSPVQYPGEYYYWGQGTQVTVSS”, “low polyreactivity”; that for “QVQLVESGGGLVQAGGSLRLSCAASGLTFDGNTMGWYRQAPGKERELVAAISFDGGNTYADSVNGRFTISRDNAKNTVYLQMNSLKPEDTAVYYDYWGQGTQVTVSS”, “low polyreactivity”. For “QVQLVESGGGLVQAGGSLRLSCAASGLTFDKIAMGWYRQAPGKERELVAAISTSGGGTYYADSVKGRFTISRDNPKTTVYLQRNSLKPEDTAVYYCAAKHYYYSPYVRYDPPPGYYWGQGTQVTVSS” the value was “high polyreactivity”; for “QVQLVESGGGLVQAGGSLRLSCAASGLTFDKYVMGWYRQAPGKERELVAAITKGGGSTYYADSVKGRFTISRDNAKNTVYLQMNSLKPEDTAVYYCAVTLPLRYWGQGTQVTVSS”, “high polyreactivity”; for “QVQLVESGGGLVQAGGSLRLSCAASGLTFDPYALGWYRQAPGKERELVATISWSTSSTYYADSVKGRFTISRDNAKNTVYLQMNSLKPEDTAVYYCNAGYIESWFLQWIEYDYWGQGTQVTVSS”, “high polyreactivity”. The result for “QVQLVESGGGLVQAGGSLRLSCAASGLTFDPYAMGWYRQAPGKEREFVAAINSDDGSTYYADSVKGRFTISRDNAKNTVYLQMNSLKPEDTAVYYCNADLAHFLWYQYDYWGQGTQVTVSS” reads “low polyreactivity”; that for “QVQLVESGGGLVQAGGSLRLSCAASGLTFDPYAMGWYRQAPGKEREFVATITTSGDSTYYADSVKGRFTISRDNAKNTVYLQMNSLKPEDTAVYYCNTQSRTLGWPLDYWGQGTQVTVSS”, “high polyreactivity”.

With “QVQLVESGGGLVQAGGSLRLSCAASGLTFDVYAMGWYRQAPGKERELVAAISSIGGSTYYADSVKGRFTISRDNAKNTVYLQMNSLKPEDTAVYYCAAAISLYSYDYWGQGTQVTVSS”, the “polyreactivity (PSR sort gate)” value was “low polyreactivity”.

In the case of “QVQLVESGGGLVQAGGSLRLSCAASGLTFDWYAMGWYRQAPGKERELVAAISWNGVSTDYADSVKGRFTISRDNAKNTVYLQMNSLKPEDTAVYYCAADPPWYLYVGFDYWGQGTQVSVSS”, the “polyreactivity (PSR sort gate)” value is recorded as “high polyreactivity”. The result for “QVQLVESGGGLVQAGGSLRLSCAASGLTFDWYTKGWSRQAPGKERELVATINSGGSTDYADSVKGRFTISRDNAKNTVYLQLNSLKPEDTAVYYCNAEYGYSGVGDDYWGQGTQVTVSS” reads “low polyreactivity”; that for “QVQLVESGGGLVQAGGSLRLSCAASGLTFDYYAMGWYRQAPGKERELVAAITRRGGGTYYADSVKGRFTISRDNAKNTVYLQMNSLTPEDTAVYYCNADRRSWSALHRYDYWGQGTQVTVSS”, “high polyreactivity”; that for “QVQLVESGGGLVQAGGSLRLSCAASGLTFEKYAMGWYRQAPGKERELVAAISQDGGSTYYADSVKGRFTISRDNAKNTVYLQMNSLKPEDTAVYYCAAEDPDSWLPWHLYDYWGQGTQVTVSS”, “low polyreactivity”.

Regarding “QVQLVESGGGLVQAGGSLRLSCAASGLTFEVYAMGWYRQAPGKERELVAAISSGGGSTYYADSVKGRFTISRDNAKNTVYLQMNSLKPEDTAVYYCNAVAKLYYWRYDYWGQGTQVTVSS”, the “polyreactivity (PSR sort gate)” value is reported as “low polyreactivity”. Regarding “QVQLVESGGGLVQAGGSLRLSCAASGLTFEVYAMGWYRQAPGKERELVAAISSGGGSTYYADSVKGRFTISRDNGKNTVYLQMNSLKPEDTAVYYCNADALIAAYKYFPYTYRFNYWGQGTQVTVSS”, the “polyreactivity (PSR sort gate)” value was “low polyreactivity”.

Consider “QVQLVESGGGLVQAGGSLRLSCAASGLTFEWYAMGWYRQAPGKERELVAAISWNGGSTYYADSVKGRFTISRDNAKNTVYLQMNSLKPEDTAVYYCATSSPRRYYWGQGTQVTVSS”, for which the “polyreactivity (PSR sort gate)” value is on record as “high polyreactivity”. For “QVQLVESGGGLVQAGGSLRLSCAASGLTFEWYTMGWYRQAHGKEREMVAVITVSGSSTYYADSVKGRFTISRDNAKNTVYLQMNSLKPEDTAVYYCNADWSFYSYTLYDYWGQGSQVTVSS” the value was “low polyreactivity”; for “QVQLVESGGGLVQAGGSLRLSCAASGLTFEYYDMGWYRQAPGKERELVAAITGSDDSTYADSVKGRFTISRDNAKNTVYLQMNSLKPEDTAVYYCAASYRAWSGNYWGQGTQVTVSS”, “high polyreactivity”; for “QVQLVESGGGLVQAGGSLRLSCAASGLTFFRNAMGWYREATGKERELVATITSTSSTNYADSVKGRFTISRDNAKNSVYLQMNSLIPEDTAVYYCAARTVGRKAGFDYWGQGTQVTVSS”, “high polyreactivity”. With “QVQLVESGGGLVQAGGSLRLSCAASGLTFGAYAMGWYRQAPGKEREFVAAITYSGGSTNYADSVKGRFTISRDNAKNTVYLQMNSLKPEDTAVYFCNAGYYSPWAFYPYAYWGQGTQVTVSS”, the “polyreactivity (PSR sort gate)” value is “high polyreactivity”. On to “QVQLVESGGGLVQAGGSLRLSCAASGLTFGAYAMGWYRQAPGKERELVAAISDSGGTTYYADSVKGRFTISRDNAKNTVYLQMNSLKPEDTAVYYCAAVKSDVRYRYDYYWGQGTQVTVSS”, for which the “polyreactivity (PSR sort gate)” value was “low polyreactivity”.

Consider “QVQLVESGGGLVQAGGSLRLSCAASGLTFGGNAMGWYRPAPGKERELVAAISWSDHTTDYADSVKGRFTISRDKSKNSVYFQMKRLKPEDTAVYYCAARLPFEHVDYWGQGTQVTVSS”, for which the “polyreactivity (PSR sort gate)” value was “low polyreactivity”. For “QVQLVESGGGLVQAGGSLRLSCAASGLTFGGNAMGWYRQAPGKERELVAAISWNGGRTYYADSVKGRFTISRDNAKNTVDLQMNSLKPEDTAVYYCNTPVFSKSSRKYYYWGQGTQVTVSS” the value was “high polyreactivity”; for “QVQLVESGGGLVQAGGSLRLSCAASGLTFGGNARGWYRQAPGNERELVAPISSRGGSTYYADSVKGRFTISRDNAKNTVYLQMNSLKPEDTAVYYCAAGNRYGVRQLYQIVTRYYWGQGTQVTVSS”, “high polyreactivity”.

The values are drawn from the nanobody polyreactivity screen of Harvey et al. (2022).
